Measurements: patent US20190112393 (published 2019)
Numbering of substitutions follows the chain as printed. Where two headings read alike, the source gives them in different places.

Legend:
Assay in all cases: SPR
human FcγRIIb [1] = molecular target: T1, human FcγRIIb (human, UniProt P31994)
T1 chain: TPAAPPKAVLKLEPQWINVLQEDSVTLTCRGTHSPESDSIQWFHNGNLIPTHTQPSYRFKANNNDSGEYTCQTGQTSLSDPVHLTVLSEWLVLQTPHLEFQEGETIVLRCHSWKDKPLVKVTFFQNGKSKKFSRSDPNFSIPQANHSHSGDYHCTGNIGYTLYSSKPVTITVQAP

human FcγRIa [2] = molecular target: T2, human FcγRIa (human, UniProt P12314)
T2 chain: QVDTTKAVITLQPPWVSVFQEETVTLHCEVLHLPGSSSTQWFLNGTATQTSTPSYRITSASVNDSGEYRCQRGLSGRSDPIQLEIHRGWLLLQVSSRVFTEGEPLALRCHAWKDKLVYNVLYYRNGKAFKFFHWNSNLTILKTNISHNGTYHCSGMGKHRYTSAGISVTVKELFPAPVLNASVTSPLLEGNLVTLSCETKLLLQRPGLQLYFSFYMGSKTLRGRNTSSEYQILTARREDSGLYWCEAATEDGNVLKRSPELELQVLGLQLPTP

human FcγRIa [3] = molecular target: T2, human FcγRIa
human FcγRIIb [4] = molecular target: T1, human FcγRIIb
human FcγRIIb [5] = molecular target: T1, human FcγRIIb

B1: BP268 (antibody)
chain 1: QVQLQESGPGLVKPSETLSLTCAVSGHSISHDHAWSWVRQPPGEGLEWIGFISYSGITNYNPSLQGRVTISRDNSKNTLYLQMNSLRAEDTAVYYCARSLARTTAMDYWGEGTLVTVSSASTKGPSVFPLAPSSKSTSGGTAALGCLVKDYFPEPVTVSWNSGALTSGVHTFPAVLQSSGLYSLSSVVTVPSSSLGTQTYICNVNHKPSNTKVDKKVEPKSCDKTHTCPPCPAPDLLGDDSVFLFPPKPKDTLMISRTPEVTCVVVDVSEEDGEVKFNWYVDGVEVHNAKTKPREEQDNSTYRVVSVLTVLHQDWLNGKEYKCKVSNKALPAPIEKTISKAKGQPREPQVYTLPPSRDELTKNQVSLTCLVKGFYPSDIAVEWESNGQPENNYKTTPPVLDSDGSFFLYSKLTVDKSRWQQGNVFSCSVMHEALHNHYTQESLSLSP
chain 2: not shown
Kd (human FcγRIIb [1]): 92 nM | Kd (human FcγRIa [2]): 4.5 nM

B2: BP249 (antibody)
chain 1: B1 chain 1 with L236Y, E270D, A332R
chain 2: not shown
Kd (human FcγRIa [3]): 7 nM

B3: BP262 (antibody)
chain 1: B1 chain 1 with D235E, D298Y
chain 2: not shown
Kd (human FcγRIIb [1]): 120 nM | Kd (human FcγRIa [2]): 10 nM

B4: BP269 (antibody)
chain 1: B1 chain 1 with D235E
chain 2: not shown
Kd (human FcγRIIb [1]): 110 nM | Kd (human FcγRIa [2]): 14 nM

B5: BP233 (antibody)
chain 1: B1 chain 1 with D235E, L236Y, E270H, D298Y, A332K
chain 2: not shown
Kd (human FcγRIa [3]): 70 nM

B6: BP228 (antibody)
chain 1: B1 chain 1 with D235E, L236Y, S269Q, E270D, D298Y, K328D, A332R
chain 2: not shown
Kd (human FcγRIIb [4]): 40 nM

B7: BP130 (antibody)
chain 1: B1 chain 1 with D239G, E270H, G273P, D298Y, V325M, A332K
chain 2: not shown
Kd (human FcγRIIb [5]): 300 nM

B8: BP243 (antibody)
chain 1: B1 chain 1 with L236Y, E270D, D298Y, A332R
chain 2: not shown
Kd (human FcγRIa [3]): 3 nM

B9: BP237 (antibody)
chain 1: B1 chain 1 with L236Y, S269Q, E270D, K328A, A332K
chain 2: not shown
Kd (human FcγRIIb [4]): 100 nM

B10: BP246 (antibody)
chain 1: B1 chain 1 with S269Q, E270D, K328A, A332R
chain 2: not shown
Kd (human FcγRIa [3]): 8 nM

B11: BP220 (antibody)
chain 1: B1 chain 1 with E270D, A332K
chain 2: not shown
Kd (human FcγRIa [3]): 20 nM

B12: BP151 (antibody)
chain 1: B1 chain 1 with L236Y, E270H, G273P, D298Y, K328A, A332R
chain 2: not shown
Kd (human FcγRIIb [5]): 40 nM

B13: BP239 (antibody)
chain 1: B1 chain 1 with L236Y, S269Q, E270D, K328A, A332R
chain 2: not shown
Kd (human FcγRIIb [4]): 60 nM
